From paper PMC3715500

Target: Rac-GFP (UniProt P63000)
Test: FRET or BRET; FLIM-FRET (donor lifetime, time-gated fast-FLIM prototype, five gates of 2.25 ns, up to 1 FLIM image per s) in living 3T3 cells co-transfected with donor Rac-GFP and acceptor PBD-mCherry or mCherry alone; analysed by mfD, polar approach and moments method

Sequence of PBD-mCherry (domain or fragment) (Q13153 2-545): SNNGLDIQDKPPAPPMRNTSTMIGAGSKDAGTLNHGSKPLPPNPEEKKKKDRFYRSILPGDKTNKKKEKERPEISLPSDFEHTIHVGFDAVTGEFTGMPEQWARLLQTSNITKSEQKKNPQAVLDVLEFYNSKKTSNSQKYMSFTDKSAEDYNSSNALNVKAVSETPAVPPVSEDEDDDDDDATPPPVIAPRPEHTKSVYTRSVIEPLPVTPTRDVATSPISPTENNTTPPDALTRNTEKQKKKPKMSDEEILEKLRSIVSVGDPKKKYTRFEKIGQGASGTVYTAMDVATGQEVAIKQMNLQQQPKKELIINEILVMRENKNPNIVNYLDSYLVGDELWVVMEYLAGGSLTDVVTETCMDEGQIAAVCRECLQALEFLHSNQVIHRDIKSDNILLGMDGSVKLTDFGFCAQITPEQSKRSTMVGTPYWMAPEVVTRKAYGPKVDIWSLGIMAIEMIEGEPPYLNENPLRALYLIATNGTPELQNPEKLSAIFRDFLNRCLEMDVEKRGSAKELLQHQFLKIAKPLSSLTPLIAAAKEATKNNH

mean donor lifetime <τ> (population of cells, n = 10): 2.37 ns
mean donor lifetime <τ> (single cell, corrected): 2.21
minimal fraction of interacting donor mfD (representative cell): 0.19
non-corrected average donor lifetime (representative cell): 2.3 ns
Substance: PBD-mCherry (domain or fragment)
